± gives the standard deviation of the averaged measurements.
B1: library; a variant is named by its letters at N, in order (parent)
chain: GAGACCGCAACTGAAAAGTTGTGGNNNNNATAGTGAGTCGCTGCCTGCAAAGACACAACT

Variants of: B1
Experiment: ligation selection enrichment (abundance after / before one-round selection) (fold); higher = more template-directed ligation activity
Conditions: with T7Psub CACGGAUGCUAAUACGACUCACUAUA; MgCl2 25 mM; 42 °C; 4 h; pH 8.5
Description: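 Lib-N5 ligase ribozyme library: five randomized core nucleotides (including the GGA motif of N8-1) within the fixed N8-1 ribozyme flanks, transcribed by T7 RNA polymerase with a 5'-triphosphate. The library (0.75 uM) was reacted with substrate T7Psub (6 uM) in 50 mM EPPS pH 8.5 with 25 mM MgCl2 at 42 C for 4 h. Ligated products were PAGE-purified, reverse transcribed and MiSeq sequenced; enrichment = abundance after selection / abundance before selection, with two independent replicates. The full transcript is built from the printed template flanks.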

Variant	ligation selection enrichment
GACCT	0.584 ± 0.26
GACCC	0.238 ± 0.057
GACCA	0.239 ± 0.067
GACCG	0.8601 ± 0.0032
CACCG	0.217 ± 0.047
CACCA	0.112 ± 0.018
CACCC	0.15 ± 0.0098
CACCT	0.334 ± 0.14
TAGGC	0.218 ± 0.0035
TAGGT	0.115 ± 0.046
TAGGA	0.998 ± 0.19
TAGGG	0.637 ± 0.12
TACTC	0.103 ± 0.036
TACTT	0.0933 ± 0.018
TACTG	0.641 ± 0.095
TACTA	0.168 ± 0.08
AACCC	0.21 ± 0.032
AACCA	0.1955 ± 0.00066
AACCG	0.526 ± 0.039
AACCT	0.845 ± 0.39
AAGAC	0.661 ± 0.019
AAGAT	16.6 ± 5
AAGAA	0.428 ± 0.044
AAGAG	0.632 ± 0.085

Variant	ligation selection enrichment
AAGGG	0.331 ± 0.0073
AAGGC	0.146 ± 0.015
AAGGT	0.203 ± 0.15
AAGGA	0.431 ± 0.013
AAGTC	0.146 ± 0.018
AAGTT	0.257 ± 0.055
AAGTG	0.294 ± 0.021
AAGTA	0.24 ± 0.059
GAGCT	0.597 ± 0.27
GAGCA	0.241 ± 0.082
GAGCC	0.172 ± 0.0044
GAGCG	0.68 ± 0.023
GAGAT	11.7 ± 2.6
GAGAG	0.663 ± 0.061
GAGAA	0.508 ± 0.036
GAGAC	0.765 ± 0.031
CACAG	0.134 ± 0.035
CACAA	0.132 ± 0.055
CACAT	1.16 ± 0.21
CACAC	0.168 ± 0.031
CAAGT	0.157 ± 0.079
CAGCT	0.542 ± 0.24
CAGCA	0.206 ± 0.024
CAGCG	0.535 ± 0.21

Variant	ligation selection enrichment
CAGCC	0.14 ± 0.0077
GACTA	0.161 ± 0.026
GACTG	0.762 ± 0.055
GACTC	0.111 ± 0.037
GACTT	0.157 ± 0.075
AACAG	0.2191 ± 0.00078
AACAC	0.159 ± 0.016
AACAA	0.209 ± 0.018
AACAT	0.729 ± 0.14
TAGTT	0.218 ± 0.078
TAGTG	0.6007 ± 0.0042
TAGTA	0.19 ± 0.055
TAGTC	0.182 ± 0.044
CACGA	0.471 ± 0.005
CACGT	0.156 ± 0.046
CACGC	0.163 ± 0.014
CACGG	0.242 ± 0.057
TACAC	0.139 ± 0.042
TACAA	0.211 ± 0.08
TACAG	0.393 ± 0.092
TACAT	0.578 ± 0.12
GAATC	0.205 ± 0.079
GAATG	0.478 ± 0.011
GAATA	0.175 ± 0.0089

Variant	ligation selection enrichment
GAATT	0.249 ± 0.099
CATAA	0.159 ± 0.023
CATAC	0.183 ± 0.029
CATAG	0.237 ± 0.014
CATAT	1.2 ± 0.084
AACGA	0.673 ± 0.067
AACGG	0.32 ± 0.045
AACGT	0.167 ± 0.013
AACGC	0.197 ± 0.017
AATAT	0.299 ± 0.032
AATAC	0.183 ± 0.0067
AATAA	0.179 ± 0.049
AATAG	0.39 ± 0.091
AACTG	0.506 ± 0.068
AACTA	0.165 ± 0.013
AACTC	0.0963 ± 0.052
AACTT	0.165 ± 0.066
AATCA	0.454 ± 0.023
TAATA	0.189 ± 0.0088
TAATT	0.211 ± 0.098
TAATG	1.16 ± 0.27
TAATC	0.111 ± 0.048
AAAGT	0.147 ± 0.088
CAGAC	0.374 ± 0.044

Variant	ligation selection enrichment
CAGAA	0.343 ± 0.0039
CAGAG	0.399 ± 0.09
CAGAT	9.36 ± 2
GAAGT	0.121 ± 0.06
AAATT	0.446 ± 0.12
AAATC	0.171 ± 0.01
AAATG	0.495 ± 0.067
AAATA	0.18 ± 0.034
TAGCT	0.547 ± 0.17
TAGCG	0.52 ± 0.11
TAGCA	0.21 ± 0.016
TAGCC	0.16 ± 0.02
GATCA	0.464 ± 0.032
CAGTC	0.125 ± 0.019
CAGTT	0.238 ± 0.0081
CAGTG	0.185 ± 0.004
CAGTA	0.14 ± 0.0029
TACCT	0.599 ± 0.22
TACCG	0.574 ± 0.048
TACCC	0.202 ± 0.003
TACCA	0.184 ± 0.011
CACTT	0.105 ± 0.047
CACTA	0.157 ± 0.041
CACTG	0.286 ± 0.0061

Variant	ligation selection enrichment
CACTC	0.0626 ± 0.02
AAGCA	0.236 ± 0.065
AAGCC	0.188 ± 0.021
AAGCT	0.56 ± 0.29
AAGCG	1.09 ± 0.27
TATAC	0.22 ± 0.0018
TATAA	0.182 ± 0.077
TATAG	0.995 ± 0.016
TATAT	0.817 ± 0.18
CAGGC	0.244 ± 0.12
CAGGG	0.186 ± 0.021
CAGGA	0.231 ± 0.013
CAGGT	0.108 ± 0.023
CAATA	0.143 ± 0.036
CAATC	0.136 ± 0.047
CAATT	0.343 ± 0.11
CAATG	0.249 ± 0.03
TAGAA	0.484 ± 0.075
TAGAC	1.03 ± 0.29
TAGAG	0.755 ± 0.058
TAGAT	15.6 ± 3.6
TATCA	0.404 ± 0.031
GAGTC	0.168 ± 0.0064
GAGTG	0.274 ± 0.035

Variant	ligation selection enrichment
GAGTT	0.235 ± 0.074
GAGTA	0.27 ± 0.053
TACGC	0.1908 ± 0.0012
TACGA	1.32 ± 0.13
TACGG	0.379 ± 0.026
TACGT	0.169 ± 0.044
GACAG	0.419 ± 0.07
GACAT	0.499 ± 0.025
GACAC	0.176 ± 0.0093
GACAA	0.256 ± 0.04
GAGGC	0.17 ± 0.017
GAGGT	0.143 ± 0.025
GAGGG	0.345 ± 0.011
GAGGA	0.501 ± 0.11
CATCA	0.288 ± 0.025
GATAG	0.538 ± 0.016
GATAT	0.446 ± 0.11
GATAA	0.189 ± 0.036
GATAC	0.188 ± 0.058
GACGC	0.264 ± 0.024
GACGG	0.409 ± 0.066
GACGA	1.29 ± 0.2
GACGT	0.154 ± 0.063
